Read-outs that look alike come from different tables or passages of the source. Non-standard residues stand in square brackets, D forms with d. Residues, ends and D or L forms follow the SMILES beside them. No end group written: not given here.
How the values were obtained:
[1] = target: mouse CRF receptor, type 2β (mCRFR2β) (mouse) (UniProt Q60748); assay: Kd(rCRFR1)/Kd(mCRFR2β) of the peptide normalised to that of astressin; radioligand displacement
[2] = target: mouse CRF receptor, type 2β (mCRFR2β) (mouse) (UniProt Q60748); assay: displacement of [125I-Tyr0]Svg from HEK-mCRFR2β membranes
[3] = target: T1, mCRFR2β (Mus musculus, UniProt Q60748); assay: cAMP stimulation / inhibition of Svg-stimulated cAMP production in HEK-mCRFR2β cells; assay type: cell-based
T1 construct: expressed in transfected cells; host or cells: HEK 293 cells, stably transfected (HEK-mCRFR2β); membrane homogenates
Method: (§1) HEK-rCRFR1 cells or HEK-mCRFR2β cells were incubated with different CRF agonists in the presence or absence of 1 μM or 10 nM antagonist, or CRF antagonist (c=1 μM) alone. After removal of the medium, cells were lyzed with aqueous 6% trichloroacetic acid (5 min, 100° C.) (Rühmann, A., A. K. E. Köpke, F. M. Dautzenberg, and J. Spiess, Proc. Natl. Acad. Sci. USA 93: 10609-10613, 1996). The cell lysates were stored at −70° C. until assayed with a RIA kit (Amersham, Little Chalfont). […] Statistical significance was determined across groups with ANOVA, and significant differences between groups were determined by post hoc comparison using the Dunn test.
(§2) Intrinsic activities were measured at peptide concentrations generating maximal formation of cAMP in HEK-rCRFR1 or HEK-mCRFR2β cells.
Target sequence in this assay (Q60748 1-431 isoform Q60748-2): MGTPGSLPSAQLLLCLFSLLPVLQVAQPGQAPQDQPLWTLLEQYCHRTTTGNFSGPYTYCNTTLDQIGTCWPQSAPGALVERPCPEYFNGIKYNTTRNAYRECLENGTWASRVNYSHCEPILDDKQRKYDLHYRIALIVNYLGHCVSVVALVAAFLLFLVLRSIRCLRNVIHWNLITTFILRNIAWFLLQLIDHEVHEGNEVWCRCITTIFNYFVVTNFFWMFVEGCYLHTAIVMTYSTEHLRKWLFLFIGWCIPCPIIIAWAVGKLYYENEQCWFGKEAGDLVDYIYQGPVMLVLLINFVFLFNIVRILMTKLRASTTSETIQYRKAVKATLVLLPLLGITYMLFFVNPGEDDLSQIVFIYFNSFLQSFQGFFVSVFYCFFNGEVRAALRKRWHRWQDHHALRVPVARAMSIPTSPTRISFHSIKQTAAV

[4] = target: T2, rCRFR1 (Rattus norvegicus, UniProt P35353); assay: cAMP stimulation / inhibition of oCRF-stimulated cAMP production in HEK-rCRFR1 cells; assay type: cell-based; settings: for HEK-rCRFR1 cells rel. pot. (relative potency): oCRF alone = 1.00; for Emax: read-out: HEK-rCRFR1 cells rel. IA (relative intrinsic activity)
T2 construct: expressed in transfected cells; host or cells: HEK 293 cells, stably transfected (HEK-rCRFR1)
T2 sequence (P35353 24-415): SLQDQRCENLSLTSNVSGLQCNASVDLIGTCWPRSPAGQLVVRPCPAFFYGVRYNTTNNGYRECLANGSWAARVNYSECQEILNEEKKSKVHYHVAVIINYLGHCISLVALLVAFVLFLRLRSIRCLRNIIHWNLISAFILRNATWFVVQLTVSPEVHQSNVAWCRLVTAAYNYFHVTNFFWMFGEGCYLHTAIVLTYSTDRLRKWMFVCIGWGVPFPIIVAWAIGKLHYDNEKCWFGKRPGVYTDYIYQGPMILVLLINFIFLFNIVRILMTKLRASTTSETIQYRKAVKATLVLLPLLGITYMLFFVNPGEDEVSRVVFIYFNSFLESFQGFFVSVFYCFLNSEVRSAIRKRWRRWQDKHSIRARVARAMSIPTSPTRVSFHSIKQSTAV
Method: as §1, §2

[5] = target: T1, mCRFR2β; assay: Displacement of [^125I-Tyr^0]Svg from membranes of HEK-mCRFR2β cells; assay type: binding; settings: for Selectivity: Kd(rCRFR1)(peptide)/Kd(rCRFR1)(astressin) × Kd(mCRFR2β)(astressin)/Kd(mCRFR2β)(peptide)
Method: (§3) Binding assays were performed in 96-well MultiScreen plates (Millipore, Eschborn, Germany) with GF/B filters (pore size 1.0 μm). […] After incubation (60 min, 23° C.), membrane suspension was aspirated through the plate, followed by two washes with assay buffer (0.2 ml, 23°). Radioactivity of the punched filters was measured with a 1470 WIZARD automatic gamma counter (Berthold, Hannover). […] Statistical analysis was performed with ANOVA, and significant differences between groups were determined by post hoc comparison using the Dunn test.
(§4) Membrane homogenates of human embryonic kidney (HEK) 293 cells stably transfected with cDNA coding for rat CRF receptor, type 1 (rCRFR1) or mouse CRF receptor, type 2β (mCRFR2β) were prepared according to standard protocols (see, e.g., Sambrook et al., Molecular Cloning: A Laboratory Manual, 2nd. Edition, Cold Spring Habor Laboratory Press, Cold Spring Habor, N.Y., 1989; Ausubel et al., Current Protocols in Molecular Biology, Green Publishing Associates and Wiley Interscience, NY, 1989).

[6] = target: T2, rCRFR1; assay: Displacement of [^125I-Tyr^0]oCRF from membranes of HEK-rCRFR1 cells; assay type: binding
Method: as §3, §4

[7] = target: T3, rat CRF receptor, type 1 (rCRFR1) (rat, UniProt P35353 24-415); assay: cell-based or functional assay
T3 sequence (looked up): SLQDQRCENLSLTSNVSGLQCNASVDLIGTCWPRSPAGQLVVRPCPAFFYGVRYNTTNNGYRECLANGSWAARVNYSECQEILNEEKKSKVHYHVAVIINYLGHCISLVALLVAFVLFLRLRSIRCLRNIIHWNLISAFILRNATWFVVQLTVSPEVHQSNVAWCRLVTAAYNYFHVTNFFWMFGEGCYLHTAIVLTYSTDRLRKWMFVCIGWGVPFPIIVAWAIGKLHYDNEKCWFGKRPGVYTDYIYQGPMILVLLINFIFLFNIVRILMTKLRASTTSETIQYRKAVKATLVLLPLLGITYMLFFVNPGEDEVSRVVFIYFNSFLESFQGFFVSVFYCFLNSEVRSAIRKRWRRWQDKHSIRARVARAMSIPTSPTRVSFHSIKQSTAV

[8] = target: T3, rat CRF receptor, type 1 (rCRFR1); assay: displacement of [125I-Tyr0]oCRF from HEK-rCRFR1 membranes
Method: as §3

[9] = target: T3, rat CRF receptor, type 1 (rCRFR1); assay: cell-based or functional assay; remark: listed apart in the source
[10] = target: T3, rat CRF receptor, type 1 (rCRFR1); assay: cell-based or functional assay; remark: listed apart in the source
[11] = target: T3, rat CRF receptor, type 1 (rCRFR1); assay: displacement of [125I-Tyr0]oCRF from HEK-rCRFR1 membranes; remark: listed apart in the source
Method: as §3

[12] = Table 4, 1 μM antagonist, cAMP production stimulated by 1 nM oCRF

Chain of sauvagine (Svg) (peptide) (peptide): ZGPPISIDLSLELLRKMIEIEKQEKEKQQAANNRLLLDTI

Row | Molecule | Selectivity [1] | Kd [2] [nM] | Kd [8] [nM] | rel. IA (relative intrinsic activity), cAMP production, HEK-rCRFR1 cells [9] | rel. pot. (relative potency), inhibition of oCRF-stimulated cAMP production, HEK-rCRFR1 cells [9] | % IA (intrinsic activity), cAMP production, HEK-rCRFR1 cells [10] | relative in vitro potency, inhibition of oCRF-stimulated cAMP production, HEK-rCRFR1 cells [10] | Kd [11] [nM] | further results
1 | astressin, cyclo(30-33)[DPhe^12, Nle^21,38, Glu^30, Lys^33]h/rCRF(12-41) (peptide) | 1 | 4 | – | – | – | – | – | – | –
2 | CC[C@H](C)[C@H](NC(=O)[C@@H](NC(=O)[C@H](CC(=O)O)NC(=O)[C@H](CC(C)C)NC(=O)[C@H](CC(C)C)NC(=O)[C@H](CC(C)C)NC(=O)[C@H](CCCNC(=N)N)NC(=O)[C@H](CC(N)=O)NC(=O)[C@H](CC(N)=O)NC(=O)[C@H](C)NC(=O)[C@H](C)NC(=O)[C@H](CCC(N)=O)NC(=O)[C@H](CCC(N)=O)NC(=O)[C@H](CCCCN)NC(=O)[C@H](CCC(=O)O)NC(=O)[C@H](CCCCN)NC(=O)[C@H](CCC(=O)O)NC(=O)[C@H](CCC(N)=O)NC(=O)[C@H](CCCCN)NC(=O)[C@H](CCC(=O)O)NC(=O)[C@@H](NC(=O)[C@H](CCC(=O)O)NC(=O)[C@@H](NC(=O)[C@H](CCSC)NC(=O)[C@H](CCCCN)NC(=O)[C@H](CCCNC(=N)N)NC(=O)[C@H](CC(C)C)NC(=O)[C@H](CC(C)C)NC(=O)[C@@H](N)Cc1ccc(O)cc1)[C@@H](C)CC)[C@@H](C)CC)[C@@H](C)O)C(N)=O [compound 20, [Tyr^12]Svg(12-40)] (H-YLLRKMIEIEKQEKEKQQAANNRLLLDTI-NH2; N-terminus assumed) | – | – | – | – | – | – | – | – | HEK-mCRFR2β cells rel. pot. (relative potency) ([3]; Table 4, 10 nM antagonist, cAMP production stimulated by 1 nM Svg, Svg alone = 1.00): 0.80 ± 0.04; Emax ([3]; read-out: HEK-mCRFR2β cells rel. IA (relative intrinsic activity)): 0.6 ± 0.2%; HEK-rCRFR1 cells rel. pot. (relative potency) [4, 12]: 0.90 ± 0.02; Emax [4]: 6 ± 3%; Kd [5]: 428 ± 119 nM; high-affinity binding to mCRFR2β ([5]; N-terminal truncation by one amino acid and Glu^12 to tyrosine): completely abolished; Selectivity ([5]; Table 3): 1.63; Kd [6]: 995 ± 337 nM
3 | α-helical CRF(9-41) (peptide) | – | – | – | – | – | – | – | – | % IA (intrinsic activity), cAMP production, HEK-rCRFR1 cells (relative, oCRF = 1.00) [7]: 0.16
4 | sauvagine (Svg) (peptide) | 0.109 | 4.5 | – | – | – | – | – | – | –
5 | CC[C@H](C)[C@H](NC(=O)[C@H](CC(=O)O)NC(=O)[C@H](CC(C)C)NC(=O)[C@H](CC(C)C)NC(=O)[C@H](CCCCN)NC(=O)[C@H](CCCNC(=N)N)NC(=O)[C@H](CC(N)=O)NC(=O)[C@H](CO)NC(=O)[C@H](Cc1c[nH]cn1)NC(=O)[C@H](C)NC(=O)[C@H](CCC(N)=O)NC(=O)[C@H](CCC(N)=O)NC(=O)[C@H](C)NC(=O)[C@H](CC(C)C)NC(=O)[C@H](CCC(N)=O)NC(=O)[C@H](CC(=O)O)NC(=O)[C@H](C)NC(=O)[C@H](CCCCN)NC(=O)[C@@H](NC(=O)[C@H](CCSC)NC(=O)[C@H](CCC(=O)O)NC(=O)[C@H](CC(C)C)NC(=O)[C@@H](NC(=O)[C@H](CCC(=O)O)NC(=O)[C@H](CCCNC(=N)N)NC(=O)[C@H](CC(C)C)NC(=O)[C@H](CC(C)C)NC(=O)[C@H](Cc1c[nH]cn1)NC(=O)[C@H](Cc1ccccc1)NC(=O)[C@@H](NC(=O)[C@H](CC(C)C)NC(=O)[C@H](CC(=O)O)NC(=O)[C@H](CC(C)C)NC(=O)[C@H](CO)NC(=O)[C@@H](NC(=O)[C@@H]1CCCN1C(=O)[C@@H]1CCCN1C(=O)[C@H](CCC(=O)O)NC(=O)[C@H](CCC(N)=O)NC(=O)[C@@H](N)CO)[C@@H](C)CC)[C@@H](C)O)C(C)C)[C@@H](C)O)C(=O)N[C@@H](C)C(N)=O [compound 1, oCRF, reference compound] | – | – | – | – | – | – | – | – | EC50 ([3]; agonist): 11.8 ± 1.96 nM; Emax at 0.001 µM ([4]; Table 2, 1 μM CRF antagonist alone, cAMP production in HEK-rCRFR1 cells, oCRF (1 nM) = 1.00, read-out: rCRFR1 % IA (intrinsic activity)): 100%; rCRFR1 relative in vitro potency ([4]; Table 2, 1 μM antagonist, cAMP production stimulated by 1 nM oCRF, oCRF alone = 1.00 (lower = stronger inhibition)): 1.00; Emax ([4]; Table 4, 1 μM CRF antagonist alone, cAMP production, oCRF = 1.00): 100%; HEK-rCRFR1 cells rel. pot. (relative potency) [4, 12]: 1.00; Selectivity ([5]; Table 1): 0.002; Kd ([5]; Table 1, [^125I-Tyr^0]Svg as competitive ligand, recombinant mCRFR2β, HEK 293 membranes, read-out: Kd(mCRFR2β)): 162 ± 37.6 nM; Selectivity ([5]; Table 3): 0.002; Kd ([6]; membranes of HEK-rCRFR1 cells, read-out: Kd, binding to rCRFR1): 0.6 ± 0.1 nM
6 | YLLRKMIEIEKQEKEKQQAANNRLLLDTI (ends and bridges not checked, also called compound 20) [[Tyr^12]Svg(12-40)] | 1.63 | – | 996 | 0.06 relative, oCRF = 1.00 | 0.9 relative, oCRF = 1.00 | – | – | – | –
7 | [dF]ELLRKMIEIEKQEKEKQQAANNRLLLDTI (not fully specified (C-terminus), also called compound 12) [[DPhe^11]Svg(11-40)] | 47.6 | 3.5 | 237 | 0.07 relative, oCRF = 1.00 | 0.75 relative, oCRF = 1.00 | 0.07 relative, oCRF = 1.00 | 0.75 relative, oCRF = 1.00 | 237 | –
8 | LELLRKMIEIEKQEKEKQQAANNRLLLDTI (not fully specified (C-terminus), also called compound 14) [Svg(11-40)] | 37.9 | 15.4 | 831 | 0.14 relative, oCRF = 1.00 | 0.76 relative, oCRF = 1.00 | 0.14 relative, oCRF = 1.00 | 0.76 relative, oCRF = 1.00 | 831 | –
9 | [dL]ELLRKMIEIEKQEKEKQQAANNRLLLDTI (not fully specified (C-terminus), also called compound 13) [[DLeu^11]Svg(11-40)] | 56.1 | 20.9 | 1670 | 0.22 relative, oCRF = 1.00 | 0.92 relative, oCRF = 1.00 | 0.22 relative, oCRF = 1.00 | 0.92 relative, oCRF = 1.00 | 1670 | –

— patent publication US6846803B1, “Antagonists specific for the corticotropin-releasing factor receptor type 2 (CRFR2)” (priority 1998, dated 2005)
